Assay in all cases: cell-based or functional assay
In assay [1] the target is human GLP-1 receptor (human, UniProt P43220 24-463).
Assay [2] has as its target human glucagon receptor (human, UniProt P47871 26-477).
Assay [3] addresses T1, human GIP receptor (human, UniProt P48546 22-466).
T1 sequence (looked up): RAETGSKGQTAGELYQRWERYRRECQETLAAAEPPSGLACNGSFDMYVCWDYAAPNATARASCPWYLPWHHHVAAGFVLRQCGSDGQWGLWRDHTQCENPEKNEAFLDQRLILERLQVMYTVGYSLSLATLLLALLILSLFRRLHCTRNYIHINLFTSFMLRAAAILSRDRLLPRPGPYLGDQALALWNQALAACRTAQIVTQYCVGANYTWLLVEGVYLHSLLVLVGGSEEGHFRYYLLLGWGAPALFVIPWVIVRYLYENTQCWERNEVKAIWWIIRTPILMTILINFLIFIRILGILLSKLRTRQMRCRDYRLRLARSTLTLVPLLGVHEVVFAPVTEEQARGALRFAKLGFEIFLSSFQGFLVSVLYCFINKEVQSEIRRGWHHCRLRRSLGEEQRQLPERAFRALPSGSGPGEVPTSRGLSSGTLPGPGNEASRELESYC

The target in assay [4] is T2, mouse GLP-1 receptor (mouse, UniProt O35659 22-463).
T2 sequence (looked up): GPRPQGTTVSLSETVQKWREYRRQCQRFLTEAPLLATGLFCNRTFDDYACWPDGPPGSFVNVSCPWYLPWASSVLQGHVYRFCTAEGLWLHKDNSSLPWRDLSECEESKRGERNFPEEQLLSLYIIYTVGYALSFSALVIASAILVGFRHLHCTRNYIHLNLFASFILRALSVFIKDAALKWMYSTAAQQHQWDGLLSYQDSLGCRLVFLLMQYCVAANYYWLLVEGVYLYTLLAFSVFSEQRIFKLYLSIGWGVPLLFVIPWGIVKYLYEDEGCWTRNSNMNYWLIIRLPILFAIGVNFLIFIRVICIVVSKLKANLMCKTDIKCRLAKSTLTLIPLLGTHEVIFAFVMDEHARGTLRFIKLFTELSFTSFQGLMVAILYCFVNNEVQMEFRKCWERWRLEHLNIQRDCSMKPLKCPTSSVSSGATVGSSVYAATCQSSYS

The target in assay [5] is T3, mouse GIP receptor (mouse, UniProt Q0P543 19-460).
T3 sequence (looked up): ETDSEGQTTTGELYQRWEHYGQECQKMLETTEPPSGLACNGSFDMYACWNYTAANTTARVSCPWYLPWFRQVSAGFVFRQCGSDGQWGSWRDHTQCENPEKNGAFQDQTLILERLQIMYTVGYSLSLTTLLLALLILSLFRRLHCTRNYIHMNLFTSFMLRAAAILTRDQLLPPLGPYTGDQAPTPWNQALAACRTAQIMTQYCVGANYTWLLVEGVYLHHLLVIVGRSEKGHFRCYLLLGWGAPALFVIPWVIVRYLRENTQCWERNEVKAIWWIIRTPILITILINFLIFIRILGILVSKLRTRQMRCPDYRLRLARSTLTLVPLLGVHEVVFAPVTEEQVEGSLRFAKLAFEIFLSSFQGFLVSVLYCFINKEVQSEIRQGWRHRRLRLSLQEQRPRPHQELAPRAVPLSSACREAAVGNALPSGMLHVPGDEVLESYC

The target of assay [6] is T4, rat GLP-1 receptor (rat, UniProt P32301 22-463).
T4 sequence (looked up): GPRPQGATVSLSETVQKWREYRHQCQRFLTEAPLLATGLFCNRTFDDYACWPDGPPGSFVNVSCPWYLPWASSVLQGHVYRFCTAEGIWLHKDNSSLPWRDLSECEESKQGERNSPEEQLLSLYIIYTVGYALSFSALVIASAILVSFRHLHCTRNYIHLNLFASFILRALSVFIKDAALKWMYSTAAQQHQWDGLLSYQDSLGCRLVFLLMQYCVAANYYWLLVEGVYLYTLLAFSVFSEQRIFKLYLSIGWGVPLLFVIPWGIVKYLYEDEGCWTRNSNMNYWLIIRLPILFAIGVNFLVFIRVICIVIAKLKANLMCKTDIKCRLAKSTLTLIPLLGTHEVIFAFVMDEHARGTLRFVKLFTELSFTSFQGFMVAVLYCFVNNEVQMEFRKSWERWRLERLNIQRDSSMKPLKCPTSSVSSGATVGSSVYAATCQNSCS

Assay [7] addresses T5, rat GIP receptor (rat, UniProt P43219 19-455).
T5 sequence (looked up): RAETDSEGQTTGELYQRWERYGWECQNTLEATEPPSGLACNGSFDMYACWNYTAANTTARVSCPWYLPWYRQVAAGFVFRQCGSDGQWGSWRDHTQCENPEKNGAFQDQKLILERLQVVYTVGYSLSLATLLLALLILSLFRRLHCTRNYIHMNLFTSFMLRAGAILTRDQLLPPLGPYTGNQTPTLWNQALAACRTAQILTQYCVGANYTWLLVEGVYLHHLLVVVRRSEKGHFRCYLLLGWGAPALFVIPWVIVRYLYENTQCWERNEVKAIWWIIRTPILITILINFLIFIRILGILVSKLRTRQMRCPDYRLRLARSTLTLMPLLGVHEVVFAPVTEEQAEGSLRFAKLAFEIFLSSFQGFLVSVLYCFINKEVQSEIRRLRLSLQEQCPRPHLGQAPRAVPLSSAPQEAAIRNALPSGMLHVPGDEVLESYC

Ends that are not written are not given here.

B1: IP237 (Fc fusion)
chain: YSEGTFTSDYSKLLEEEAVRLFIEWLVKGPGGGGGSGGGGSGGGGSGGGGSATHTCPPCPAPEF
Regarding B1, the “cAMP EC50” value in assay [1] is 0.095 nM; in assay [2], above 1800 nM; in assay [3] it was 0.012 nM; in assay [4], 0.29 nM; in assay [5], 170 nM; in assay [6], 0.023 nM. In addition, the “cAMP EC50” value in assay [7] came to 0.14 nM.

B2: IP149 (Fc fusion)
chain: YSQGTFTSDYSKLLEEEAVRLFIEWLVKGPAPPGGSGSTASSGSGSATGGGGAATHTCPPCPAPEF
On to B2, for which the “cAMP EC50” value turned out to be 0.07 nM in assay [1], 0.2 nM in assay [2] and 0.0081 nM in assay [3]. Further, the “cAMP EC50, Batch 2” value in assay [1] stood at 0.12 nM; in assay [2] it was 0.23 nM; in assay [3], 0.012 nM; in assay [4], 0.37 nM; in assay [5] it was 53 nM; in assay [6], 0.031 nM. In addition, the “cAMP EC50, Batch 2” value in assay [7] is 0.19 nM.

B3: IP243 (Fc fusion)
chain: YSEGTFTSDYSKLLEEEAQRLFIEWLVKGPAAAGGSGSTASSGSGSATGGGGAATHTCPPCPAPEF
Turning to B3, the “cAMP EC50” value is 0.25 nM in assay [1]; above 2100 nM in assay [2]; 0.01 nM in assay [3]; 0.36 nM in assay [4]; 32 nM in assay [5]; 0.024 nM in assay [6]. For the same molecule, in assay [7], the “cAMP EC50” value turned out to be 0.091 nM. Besides, the entries for the “cAMP EC50, Batch 2” value in assay [1], in assay [2] and in assay [3] were 0.21 nM, 1400 nM and 0.0069 nM, respectively. The “cAMP EC50, Batch 3” value in assay [1] stood at 0.17 nM; in assay [2], 1400 nM; in assay [3], 0.0072 nM.

B4: IP235 (Fc fusion)
chain: YSEGTFTSDYSKLLEEEAVRLFIEWLVKGPGGGGGSGGGGSATHTCPPCPAPEF
modifications: cysteine pairing not given here; also: fused to IgG1-TM Fc
In the case of B4, the “cAMP EC50” value was 0.23 nM in assay [1]; above 9900 nM in assay [2]; 0.021 nM in assay [3]; 0.6 nM in assay [4]; 2600 nM in assay [5]; 0.037 nM in assay [6]. Further, the “cAMP EC50” value in assay [7] worked out at 0.65 nM.

B5: IP085 (Fc fusion)
chain: YSEGTFTSDYSKLLEEEAVRLFIEWLLAGAPPGGSGSTASSGSGSATGGGGAATHTCPPCPAPEF
As to B5, the “cAMP EC50” value in assay [1] is 0.15 nM; in assay [2], 7.1 nM; in assay [3], 0.0099 nM; in assay [4], 0.95 nM; in assay [5], 0.72 nM; in assay [6], 0.1 nM. Further, in assay [7], the “cAMP EC50” value turned out to be 0.15 nM. In addition, the “cAMP EC50, Batch 4” value in assay [1] worked out at 0.1 nM; in assay [2], 3.6 nM; in assay [3], 0.0065 nM; in assay [4], 0.58 nM; in assay [5] it was 0.21 nM; in assay [6] it was 0.023 nM. In assay [7], the “cAMP EC50, Batch 4” value stood at 0.031 nM.

B6: IP236 (Fc fusion)
chain: YSEGTFTSDYSKLLEEEAVRLFIEWLVKGPGGGGGSGGGGSGGGGSATHTCPPCPAPEF
modifications: cysteine pairing not given here; also: fused to IgG1-TM Fc
B6: the “cAMP EC50” value in assay [1] was 0.15 nM; in assay [2] it was above 5500 nM; in assay [3], 0.016 nM; in assay [4] it was 0.3 nM; in assay [5] it was 460 nM; in assay [6], 0.024 nM. Also, in assay [7], the “cAMP EC50” value worked out at 0.21 nM.
